Assay results published in patent publication US5609876, “Peptide vaccines and associated methods for protection against feline leukemia virus” (University of Pittsburgh of the Commonwealth System of …, dated 1997).
No end group written: not given here.

Target: T1, PRN4358 (feline leukemia virus (FeLV 61-E gp70))
T1 peptide: VAPTTVGPKRIGTGDR-NH2
Assay: 1H-NMR of an equimolar (5 mM) mixture of PRN42 and PRN4358, amide proton protection in D2O

Binder: TPPQAMGPNLVLPDQKPPSRQSQTGSKVATQRPQTNESAPRS-NH2 [PRN42]
- binding result: binds
